Target: factor X (Homo sapiens, UniProt P00742)
Experiment: factor X activation by IXa proteins, Ca2+ and VIIIa, no phospholipid
Assay type: biochemical
Parameters: Normal human plasma factor IX (IXNP) and factor X were isolated as described in Bajaj and Birktoft; from tissue; host or cells: human plasma (factor X); factor VIII obtained from Dr. Leon Hoyer, American Red Cross
Details: 14 nM VIIIa, 400 nM factor X
Procedure: The ability of each activated mutant to activate factor X in the presence and absence of phospholipid and factor VIIIa was determined as follows. The activation was carried out at 37° C. in a 50 μl reaction volume, in TBS/BSA pH 7.4, for various time periods. At the end of the incubation time period, each reaction mixture received 1 μl of 0.5 M EDTA to stop further generation of factor Xa. A 40 μL aliquot was then added to 0.1 ml quartz cuvette containing S-2222 in 75 μL of TBS/BSA, pH 7.4. The final concentration of S-2222 was 100 μM. The p-nitroaniline release was measured continuously (ΔA405/min) for up to 20 min (Sabharwal et al., 1995 supra; Sabharwal et al., 1997, supra). Factor Xa generated was calculated from a standard curve constructed using factor Xa prepared from insolubilized Russell's viper venom.
Factor X activation measurements were made under four experimental regimes. In one, Ca^2+ and phospholipid were present. In this system activation was carried out for 5–15 minutes and the concentration of each IXa protein was 20 nM, phospholipid was 25 μM, and factor X was 100 nM. In the second regime, Ca^2+, phospholipid and factor VIIIa were present. […] In the third regime, only Ca^2+ was present. Here, activation was carried out for 2–20 min and concentration of each IXa protein was 400 nM and factor X was 1 μM. Finally, in the fourth regime, Ca^2+ and VIIIa were present. Here, activation was carried out for 15–120 sec and the concentration of each IXa protein was 2 μM, VIIIa was 14 nM, and factor X was 400 nM.
In all of the above factor X activation experiments, the incubation times chosen were those in which the factor Xa generated was always less than 10 nM. This precautionary measure was taken to prevent activation of factor X by the generated factor Xa (see, e.g., Link. and Castellino, 1982, Arch Biochem. Biophys. 215, 215–221). Further, in those incubation mixtures which contained […], control experiments were also performed in which factor VIIIa was omitted. […] In the presence of factor VIIIa, 10 μM phospholipid was used based upon previous observations (Mathur et al., 1997, supra; van Dieijen et al., 1981, J. Biol. Chem. 256, 3433–3442). The concentrations of factor X selected for each set of reaction conditions are those which are below or at the Km values (van Dieijen et al., supra; Fay and Koshibu, 1998, J Biol. Chem. 273, 19049–19054). In this region of the Michaelis-Menton curve, the rate of formation of factor Xa is proportional to the substrate factor X and therefore to the affinity of the factor IXa enzyme for factor X.

Chain of factor X (P00742 183-488 limits assumed): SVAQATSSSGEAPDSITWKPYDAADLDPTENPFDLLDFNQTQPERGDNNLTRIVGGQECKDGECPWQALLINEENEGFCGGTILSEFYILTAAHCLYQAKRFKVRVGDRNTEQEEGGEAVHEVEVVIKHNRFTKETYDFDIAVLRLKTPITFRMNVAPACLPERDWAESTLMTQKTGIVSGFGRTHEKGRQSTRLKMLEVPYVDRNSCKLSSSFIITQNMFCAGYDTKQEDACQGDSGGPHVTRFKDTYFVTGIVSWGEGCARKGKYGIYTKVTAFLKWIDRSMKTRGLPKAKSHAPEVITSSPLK
Chain of factor X (P00742 41-179 limits assumed): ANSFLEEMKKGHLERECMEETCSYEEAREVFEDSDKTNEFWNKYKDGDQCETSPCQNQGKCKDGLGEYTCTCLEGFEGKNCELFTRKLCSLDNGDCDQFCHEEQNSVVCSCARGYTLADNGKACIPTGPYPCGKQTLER
Chain of factor X (P00451 20-759 partner limits assumed): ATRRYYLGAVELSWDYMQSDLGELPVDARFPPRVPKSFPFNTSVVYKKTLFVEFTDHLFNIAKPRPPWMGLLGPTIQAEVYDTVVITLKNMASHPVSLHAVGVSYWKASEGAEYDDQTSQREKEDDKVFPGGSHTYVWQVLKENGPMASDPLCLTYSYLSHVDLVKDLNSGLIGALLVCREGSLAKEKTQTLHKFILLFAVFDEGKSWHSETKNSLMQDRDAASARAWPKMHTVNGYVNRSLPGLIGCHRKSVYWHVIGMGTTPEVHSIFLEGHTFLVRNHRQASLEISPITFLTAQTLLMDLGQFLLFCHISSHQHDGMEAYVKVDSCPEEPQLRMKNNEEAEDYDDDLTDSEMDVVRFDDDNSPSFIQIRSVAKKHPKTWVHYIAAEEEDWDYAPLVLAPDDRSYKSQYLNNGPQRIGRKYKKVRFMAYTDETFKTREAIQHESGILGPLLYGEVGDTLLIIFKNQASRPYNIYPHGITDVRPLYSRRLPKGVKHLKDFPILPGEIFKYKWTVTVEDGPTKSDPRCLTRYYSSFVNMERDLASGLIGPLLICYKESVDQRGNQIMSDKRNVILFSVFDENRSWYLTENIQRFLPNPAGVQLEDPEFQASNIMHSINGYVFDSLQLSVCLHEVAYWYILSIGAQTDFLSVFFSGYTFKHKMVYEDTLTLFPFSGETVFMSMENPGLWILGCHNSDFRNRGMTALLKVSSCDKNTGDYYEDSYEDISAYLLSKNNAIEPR
Chain of factor X (P00451 1668-2351 partner limits assumed): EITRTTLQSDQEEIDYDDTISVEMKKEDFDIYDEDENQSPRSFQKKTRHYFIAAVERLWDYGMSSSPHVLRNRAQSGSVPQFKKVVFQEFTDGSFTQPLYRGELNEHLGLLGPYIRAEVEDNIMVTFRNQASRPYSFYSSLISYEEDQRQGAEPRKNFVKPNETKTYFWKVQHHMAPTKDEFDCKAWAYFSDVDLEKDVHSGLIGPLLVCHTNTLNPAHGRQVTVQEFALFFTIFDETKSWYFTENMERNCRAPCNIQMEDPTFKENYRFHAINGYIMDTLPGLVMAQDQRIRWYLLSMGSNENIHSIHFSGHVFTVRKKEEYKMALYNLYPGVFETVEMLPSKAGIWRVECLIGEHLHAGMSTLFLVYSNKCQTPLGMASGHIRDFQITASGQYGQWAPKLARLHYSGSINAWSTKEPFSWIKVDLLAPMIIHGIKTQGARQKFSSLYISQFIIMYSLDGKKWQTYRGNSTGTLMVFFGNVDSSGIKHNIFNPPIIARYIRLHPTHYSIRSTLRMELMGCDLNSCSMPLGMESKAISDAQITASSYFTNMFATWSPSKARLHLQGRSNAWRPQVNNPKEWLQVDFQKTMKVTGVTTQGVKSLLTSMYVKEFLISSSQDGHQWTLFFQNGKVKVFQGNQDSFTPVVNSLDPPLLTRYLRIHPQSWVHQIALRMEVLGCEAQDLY

Q: How did the “X-activation rate, PL-minus system” value turn out when “IXaV331A: activated factor IX mutant V331A” was run?
A: The value was 0.54 ± 0.02 nM/min.

From patent US7109170B2, “Region of factor IXa protease domain that interacts with factor VIIIa and methods therefor” (Saint Louis University, priority 1999, dated 2006)
